The text below walks through data of patent US20100111957A1 (TECHNION RESEARCH AND DEVELOPMENT FOUNDATION, published 2010).

For assay [1], the target named is T1, recombinant biotinylated single-chain HLA-A2/pp65 495-503 complex (human; cytomegalovirus (CMV)).
The target of assay [2] is T1, recombinant biotinylated single-chain …. In words: SPR, Biacore 2000; biotinylated HLA-A2/pp65 on streptavidin chip.

B1: H9 Fab (soluble recombinant Fab, monomer) (Fab, V domains shown)
VH: EVQLVQSGAEVKKPGSSVKVSCKASGGTFSSYAISWVRQAPGQGLEWMGGIIPIFGTANYAQKFQGRVTITADESTSTAYMELSSLRSEDTAVYYCARGDLYYYDSSGYPRYYFDYWGQGTLVTVSS
VL: ETTLTQSPGTLSLSPGERATLSCRASQSVSSSYLAWYQQKPGQAPRLVIYGASSRATGIPDRFSGSGSGTDFTLTISRLEPEDFAVYYCQHYSTSPGFTFGQGTKLEIRR
notes: also called Fab H9; H9 Fab monomer
A word on the Kd: it is the constant that tells how readily two partners part at equilibrium. The term koff denotes the first-order rate constant of dissociation. Usually kon stands for the rate constant with which the complex forms. In the case of B1, the Kd in assay [1] amounted to 8 nM. In addition, in assay [2], the koff worked out at 0.000879 s⁻¹ and the kon worked out at 105000 M⁻¹ s⁻¹.

B2: H9 whole IgG antibody (H9 Fab-derived IgG1, kappa) (antibody, V domains shown)
VH: B1 VH
VL: B1 VL
notes: also called H9 IgG; H9 IgG Ab
As for B2, in assay [1], the Kd is 5 nM. For the same molecule, in assay [2], the koff is 0.00352 s⁻¹ and the kon was determined as 599000 M⁻¹ s⁻¹.
